From patent publication US20090191117A1 come the findings set out here.

For this test, the target named is αvβ3 and αvβ5 integrins on human umbilical vein endothelial cells (human), P06756. Nature of the test: cell-based or functional assay.

B1: CNTO 95 (antibody, V domains shown)
VH: QVQLVESGGGVVQPGRSRRLSCAASGFTFSRYTMHWVRQAPGKGLEWVAVISFDGSNKYYVDSVKGRFTISRDNSENTLYLQVNILRAEDTAVYYCAREARGSYAFDIWGQGTMVTVSS
VL: EIVLTQSPATLSLSPGERATLSCRASQSVSSYLAWYQQKPGQAPRLLIYDASNRATGIPARFSGSGSGTDFTLTISSLEPEDFAVYYCQQRSNWPPFTFGPGTKVDIK
For the molecule B1, the HUVEC adhesion to fibrin, percent of adhesion without antibody, antibody at 10 µg/ml amounted to 45.1%; the HUVEC adhesion to fibrinogen, percent of adhesion without antibody, antibody at 10 µg/ml was determined as 34.5%; the HUVEC adhesion to gelatin, percent of adhesion without antibody, antibody at 10 µg/ml came out at 54.8%; the HUVEC adhesion to vitronectin, percent of adhesion without antibody, antibody at 10 µg/ml is 3.3%.
